Data set [1] deals with the molecule itself. The data set can be described thus: SEC; data not shown; Superdex 75 10/300 GL, 200 mM NaCl, 50 mM Tris-HCl pH 7.5, 1% glycerol; 200 ul of about 0.2 mg/ml YbaBHi; mass from a calibration curve of standards. A general note: In gel filtration, larger molecules generally elute earlier.
Data set [2] has as its target T1, YbaBEc (Escherichia coli, UniProt P0A8B5 1-109).
T1 sequence: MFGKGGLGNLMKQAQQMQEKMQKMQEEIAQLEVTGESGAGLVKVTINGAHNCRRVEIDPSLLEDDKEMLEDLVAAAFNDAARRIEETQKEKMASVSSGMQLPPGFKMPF
Description: EMSA; first step, n=1.93; EMSA: 100 pM biotin-DNA, 50 mM Tris-HCl pH 7.5, 1 mM DTT, protease inhibitor 8 ul/ml, phosphatase inhibitor 2 ul/ml, 10% glycerol, no added salt stated, 20 min, room temperature. As to conditions: protein: recombinant; tags: pET200-TOPO vector tag, His-Trap purified; chain copies: 2; label: 5' biotin on strand 1; blunt. (In general: A gel shift assay detects complexes by their altered migration in electrophoresis.)

The target of data set [3] is T2, YbaBHi (Haemophilus influenzae, UniProt P44711 1-109). Description: EMSA; first step, n=2.09; EMSA: 100 pM biotin-DNA, 50 mM Tris-HCl pH 7.5, 1 mM DTT, protease inhibitor 8 ul/ml, phosphatase inhibitor 2 ul/ml, 10% glycerol, no added salt stated, 20 min, room temperature. As to conditions: protein: recombinant; tags: pET15b vector tag, His-Trap purified; chain copies: 2; label: 5' biotin on strand 1; blunt.

Data set [4] has as its target T2, YbaBHi. The data set can be described thus: EMSA; first step, apparent monomer-equivalent; EMSA: 100 pM biotin-DNA, 50 mM Tris-HCl pH 7.5, 1 mM DTT, protease inhibitor 8 ul/ml, phosphatase inhibitor 2 ul/ml, 10% glycerol, no added salt stated, 20 min, room temperature. As to conditions: protein: recombinant; tags: pET15b vector tag, His-Trap purified; chain copies: 2; label: 5' biotin on strand 1; blunt.

The target of data set [5] is T1, YbaBEc. The data set is described as above. The conditions noted are these: protein: recombinant; tags: pET200-TOPO vector tag, His-Trap purified; chain copies: 2; label: 5' biotin on strand 1; blunt.
Data set [6] addresses T2, YbaBHi. The data set can be described thus: EMSA; no detectable effect of mutation; EMSA: 100 pM biotin-DNA, 50 mM Tris-HCl pH 7.5, 1 mM DTT, protease inhibitor 8 ul/ml, phosphatase inhibitor 2 ul/ml, 10% glycerol, no added salt stated, 20 min, room temperature. The conditions noted are these: protein: recombinant; tags: pET15b vector tag, His-Trap purified; chain copies: 2; label: 5' biotin on strand 1; blunt.

Data set [7] concerns the target T1, YbaBEc. The description is as above. As to conditions: protein: recombinant; tags: pET200-TOPO vector tag, His-Trap purified; chain copies: 2; label: 5' biotin on strand 1; blunt.
Data set [8] concerns the target T2, YbaBHi. The data set can be described thus: EMSA; protein at half its Kd; EMSA: 100 pM biotin-DNA, 50 mM Tris-HCl pH 7.5, 1 mM DTT, protease inhibitor 8 ul/ml, phosphatase inhibitor 2 ul/ml, 10% glycerol, no added salt stated, 20 min, room temperature. As to conditions: protein: recombinant; tags: pET15b vector tag, His-Trap purified; chain copies: 2; label: 5' biotin on strand 1; blunt.

Data set [9] has as its target T1, YbaBEc. The description is as above. The conditions noted are these: protein: recombinant; tags: pET200-TOPO vector tag, His-Trap purified; chain copies: 2; label: 5' biotin on strand 1; blunt.
Another data set deals with T3, EbfC (Borrelia burgdorferi, UniProt O51418 1-99).
T3 sequence: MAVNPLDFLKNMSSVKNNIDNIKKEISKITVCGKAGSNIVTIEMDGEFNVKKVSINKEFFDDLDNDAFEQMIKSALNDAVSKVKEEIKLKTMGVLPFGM
Description: EMSA; specific plus nonspecific complex; EMSA: 100 pM biotin-DNA, 50 mM Tris-HCl pH 7.5, 1 mM DTT, protease inhibitor 8 ul/ml, phosphatase inhibitor 2 ul/ml, 10% glycerol, no added salt stated, 20 min, room temperature. The conditions noted are these: protein: recombinant; tags: His-Trap purified (His tag implied); chain copies: 2; label: 5' biotin on strand 1; blunt.

Changes are numbered by the printed parent chain.

The results in this text go back to article PMC2720974, “DNA-binding by Haemophilus influenzae and Escherichia coli YbaB, members of a widely-distributed bacterial protein family” (BMC Microbiology, 2009).

B1: Haemophilus influenzae YbaB (natural protein, H. influenzae, UniProt P44711 1-109, looked up)
chain: MFGKGGLGGLMKQAQQMQEKMQKMQEEIAQLEVTGESGAGLVKITINGAHNCRRIDIDPSLMEDDKEMLEDLIAAAFNDAVRRAEELQKEKMASVTAGMPLPPGMKFPF
notes: Purified on a His-Trap column; removal of the tag is not mentioned; also called YbaBHi; HI0442; source: E. coli Rosetta pLysS, purified (His-Trap HP)
As a reminder, the stoichiometry N is the number of molecules, sites or subunits per partner or assembly. Take B1: the “stoichiometry N” value in [1] is 2.

B2: b-WT (dsDNA)
DNA 1: TTGTAATGAGTAGTGCATTTGCAATGGAGAGATTTTGGGGAGTTGTTTAAAATTACATTTGCGTTTTGTTAAAATGTAACAGCTGAATGTAACAAAATTATATATTTAAATCTTTGAAATATTGC
DNA 2: GCAATATTTCAAAGATTTAAATATATAATTTTGTTACATTCAGCTGTTACATTTTAACAAAACGCAAATGTAATTTTAAACAACTCCCCAAAATCTCTCCATTGCAAATGCACTACTCATTACAA
As for B2, the Ka is 1.7e+14 M-2 with YbaBEc [2] and 1.7e+13 M-2 with YbaBHi [3]. Also, the Kd with YbaBHi [4] stood at 240 nM; with YbaBEc [5] it was 77 nM.

B3: b-C20 (dsDNA)
DNA 1: B2 DNA 1 with T75C, G76A, T77C, C93A
DNA 2: B2 DNA 2 with G33T, A49G, C50T, A51G
In the case of B3, the binding result in the data set with YbaBHi [6] and with YbaBEc [7] was “binds” throughout.

B4: b-C40 (dsDNA)
DNA 1: B2 DNA 1 with T75C, G76A, T77C, A91G
DNA 2: B2 DNA 2 with T35C, A49G, C50T, A51G
As for B4, the binding result with YbaBHi [6] and with YbaBEc [7] was “binds” throughout.

B5: b-C2 (dsDNA)
DNA 1: B2 DNA 1 with T75C, G76A, T77C
DNA 2: B2 DNA 2 with A49G, C50T, A51G
Regarding B5, the binding result with YbaBHi [8], with YbaBEc [9] and in the data set with EbfC was “binds” each time.

B6: b-C30 (dsDNA)
DNA 1: B2 DNA 1 with T75C, G76A, T77C, A94T
DNA 2: B2 DNA 2 with T32A, A49G, C50T, A51G
Take B6: the binding result in the data set with YbaBHi [6] and with YbaBEc [7] was “binds” throughout.

B7: b-C50 (dsDNA)
DNA 1: B2 DNA 1 with T75C, G76A, T77C, A92T
DNA 2: B2 DNA 2 with T34A, A49G, C50T, A51G
In the case of B7, the binding result with YbaBHi [6] and with YbaBEc [7] was “binds” throughout.
